From article PMC11098746 (2024)

Key:
Test in all cases: AVEXIS screen signal:noise (double-corrected)
[1] = target: T1, ADP279
T1 chain: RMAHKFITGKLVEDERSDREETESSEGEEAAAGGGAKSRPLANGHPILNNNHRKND

[2] = target: T2, ADP381
T2 chain: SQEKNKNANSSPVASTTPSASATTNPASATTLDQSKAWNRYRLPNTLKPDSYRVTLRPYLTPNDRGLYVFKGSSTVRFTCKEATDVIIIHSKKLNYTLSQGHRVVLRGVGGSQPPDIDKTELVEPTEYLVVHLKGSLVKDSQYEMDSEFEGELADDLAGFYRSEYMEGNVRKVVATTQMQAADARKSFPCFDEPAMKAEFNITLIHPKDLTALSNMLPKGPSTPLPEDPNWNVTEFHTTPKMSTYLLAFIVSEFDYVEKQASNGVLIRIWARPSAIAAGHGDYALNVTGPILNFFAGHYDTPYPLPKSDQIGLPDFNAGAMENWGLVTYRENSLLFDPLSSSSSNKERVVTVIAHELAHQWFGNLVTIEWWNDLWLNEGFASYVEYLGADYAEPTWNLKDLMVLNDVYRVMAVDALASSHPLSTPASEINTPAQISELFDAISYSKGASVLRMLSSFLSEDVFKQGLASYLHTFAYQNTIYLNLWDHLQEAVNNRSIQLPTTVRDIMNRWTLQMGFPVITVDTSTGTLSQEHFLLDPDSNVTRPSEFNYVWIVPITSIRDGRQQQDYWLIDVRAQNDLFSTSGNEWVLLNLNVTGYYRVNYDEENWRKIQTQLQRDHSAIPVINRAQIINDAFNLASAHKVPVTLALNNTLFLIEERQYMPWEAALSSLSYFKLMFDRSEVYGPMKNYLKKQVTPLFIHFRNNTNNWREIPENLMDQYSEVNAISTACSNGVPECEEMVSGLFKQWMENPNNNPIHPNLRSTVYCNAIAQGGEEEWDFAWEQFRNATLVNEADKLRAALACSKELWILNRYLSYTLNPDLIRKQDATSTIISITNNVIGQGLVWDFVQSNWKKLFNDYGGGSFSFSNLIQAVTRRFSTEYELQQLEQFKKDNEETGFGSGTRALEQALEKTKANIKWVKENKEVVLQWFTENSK

[3] = target: T3, ADP261
T3 chain: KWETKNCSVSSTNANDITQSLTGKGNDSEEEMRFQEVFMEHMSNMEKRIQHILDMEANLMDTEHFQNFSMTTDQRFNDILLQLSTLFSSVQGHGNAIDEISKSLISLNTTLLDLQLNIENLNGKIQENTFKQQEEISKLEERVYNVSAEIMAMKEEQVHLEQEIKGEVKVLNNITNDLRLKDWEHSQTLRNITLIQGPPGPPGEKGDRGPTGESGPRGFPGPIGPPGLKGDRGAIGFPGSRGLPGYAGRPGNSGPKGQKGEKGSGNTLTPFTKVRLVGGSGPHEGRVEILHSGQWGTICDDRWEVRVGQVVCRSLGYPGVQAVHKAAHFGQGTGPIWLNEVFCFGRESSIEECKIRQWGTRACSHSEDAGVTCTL

[4] = target: ADP123
[5] = target: T4, ADP264
T4 chain: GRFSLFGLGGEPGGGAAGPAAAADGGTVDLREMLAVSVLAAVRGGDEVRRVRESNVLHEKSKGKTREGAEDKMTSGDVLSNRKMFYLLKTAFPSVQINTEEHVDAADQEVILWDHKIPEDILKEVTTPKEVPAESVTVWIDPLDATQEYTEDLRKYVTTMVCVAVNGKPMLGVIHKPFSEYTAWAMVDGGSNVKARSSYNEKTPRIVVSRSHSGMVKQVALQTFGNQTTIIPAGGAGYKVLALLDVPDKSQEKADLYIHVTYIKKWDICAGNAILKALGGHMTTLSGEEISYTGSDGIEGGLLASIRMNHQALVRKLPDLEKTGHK

[6] = target: T5, ADP292
T5 chain: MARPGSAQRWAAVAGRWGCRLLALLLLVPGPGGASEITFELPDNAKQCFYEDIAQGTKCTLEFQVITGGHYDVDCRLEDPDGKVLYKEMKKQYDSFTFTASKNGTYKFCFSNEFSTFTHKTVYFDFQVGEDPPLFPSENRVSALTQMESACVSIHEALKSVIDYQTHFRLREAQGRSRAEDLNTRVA

[7] = target: T6, ADP293
T6 chain: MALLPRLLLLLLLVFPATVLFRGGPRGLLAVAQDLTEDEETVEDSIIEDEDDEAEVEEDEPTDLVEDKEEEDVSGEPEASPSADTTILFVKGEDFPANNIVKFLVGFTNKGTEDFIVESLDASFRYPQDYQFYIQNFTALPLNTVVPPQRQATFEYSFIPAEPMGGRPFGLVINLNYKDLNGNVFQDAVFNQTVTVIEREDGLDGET

[8] = target: T7, ADP106
T7 chain: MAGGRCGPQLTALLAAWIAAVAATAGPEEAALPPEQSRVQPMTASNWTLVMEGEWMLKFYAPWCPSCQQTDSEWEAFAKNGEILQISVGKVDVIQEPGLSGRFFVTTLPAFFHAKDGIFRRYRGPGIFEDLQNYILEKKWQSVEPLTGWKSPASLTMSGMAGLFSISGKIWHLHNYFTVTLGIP

B1: ADP237 (protein)
chain: TKKKVSVSEINFDSAVDDVQWCGNNHMTVLVKTVKGRLYRSSDGGKIWTNIAGNLADKENNKADPSSNHMNEMTTVDLIMVNSVNKNIVLIIGNQKNHYISEDSGETFRLLNYQNKINFWQFHSTKTHWALVSSWTEACYSNDDNSGECMQTLSLTKDLGRTFQLIDIYVVQFNWGDKESHLEDTIYYTRHKNRNGHQQRFSGWSKDVDFVATHNFGKSVDVLVKQGNKFLISNGYIFVAKLNDVIKQTVNMMVSTDGGKTFNKANLPENIHEKSYTVLDTSEGSIMLHVNHGTSSEKINTGNVYISDASGLNYALSLPNNIRTSSGECEFDRVLSLDGVYIANFLDVNNEIKDEDLRFQNFKSAIEEDIAPFETNTEKRKKQYNKGKNEDAVRTVISFNKGGEWSYLKAPKVDSRGNKYECGDNCYLHLHGITNYHQYAPFYSIENAVGIIMGTGNVGSHLRYESDEVNTFLSRDGGVTWIEAHKGPYIYEYGDYGGLIVMADDLRKTNQIVFSWNEGQSWFDFELGQFSIDVDNIVAEPNSASVEFLVYGTRNDVGVLYHLDFNALGQPLCKGLWAADSVSSDYETWSPTSGNFNDKCILGRKITYTRRKQTSECFNGKDLKRTVDKKPCECTPEDYECETGFTRKIGSYECKPNDPTLTIEGCTSSSYFYANAYRKVPGDICVNGWVPEKVPVPCPSYAPFNKAAK
modifications: bait human Fc-tagged dimer; N-glycosylation sequons mutated in Plasmodium baits
B1 showed a binding score [1] of 12.8, a binding score [2] of 8.67 and a binding score [3] of 19.5. It also gave a binding score [4] of 5.84, a binding score [5] of 9.43 and a binding score [6] of 5.28. It also gave a binding score [7] of 11.1 and a binding score [8] of 10.3.
